Reference: patent US20260028391A1 (HUMABS BIOMED, published 2026)
Numbering of substitutions follows the chain as printed. Numbers in names are those of the source.

Assays:
[1] = molecular target: RSV A1998/3-2 fusion glycoprotein (F) (RSV A, strain A1998/3-2); test: cell-based or functional assay
[2] = molecular target: RSV A 2000/3-4 fusion glycoprotein (F) (RSV A, strain A 2000/3-4); test: cell-based or functional assay
[3] = molecular target: RSV A2 VR 1540 fusion glycoprotein (F) (RSV A, strain A2 (VR 1540), UniProt P03420 26-574); test: cell-based or functional assay
[4] = molecular target: RSV A2 (screening GFP strain) fusion glycoprotein (F) (RSV A); test: cell-based or functional assay
[5] = molecular target: RSV A 2001/3-12 fusion glycoprotein (F) (RSV A, strain A 2001/3-12); test: cell-based or functional assay
[6] = molecular target: RSV A1997/12-35 fusion glycoprotein (F) (RSV A, strain A1997/12-35); test: cell-based or functional assay
[7] = molecular target: RSV Ds Red 5 fusion glycoprotein (F) (RSV, strain printed as Ds Red 5); test: cell-based or functional assay
[8] = molecular target: RSV B (screening GFP strain) fusion glycoprotein (F) (RSV B); test: cell-based or functional assay
RSV-B F = molecular target: T1, RSV-B F (RSV B); test: affinity; method not given
T1 construct: also called RSV F B

[9] = molecular target: RSV B 9719/09 fusion glycoprotein (F) (RSV B, strain 9719/09); test: cell-based or functional assay
[10] = molecular target: RSV B1 BPR-348-00 (BEI NR-4052) fusion glycoprotein (F) (RSV B, strain B1, UniProt O36634 26-574); test: cell-based or functional assay
[11] = molecular target: RSV A2 BPR-344-00 (BEI NR-12149) fusion glycoprotein (F) (RSV A, strain A2, UniProt P03420 26-574); test: cell-based or functional assay
[12] = molecular target: RSV A Randall fusion glycoprotein (F) (RSV A, strain Randall); test: cell-based or functional assay
RSV-A F = molecular target: T2, RSV-A F (RSV A); test: affinity; method not given
T2 construct: also called RSV F A

DS-Cav1 RSV F [13] = molecular target: DS-Cav1 RSV F (respiratory syncytial virus (RSV); …, UniProt P13843 26-513); test: ELISA on RSV-F Ds-Cav1, 1 ug/ml
[14] = molecular target: fusion glycoprotein (F) of MPV A1/6621 (metapneumovirus A1/6621); test: cell-based or functional assay
[15] = molecular target: RSV fusion glycoprotein (RSV-F) (respiratory syncytial virus); test: biolayer interferometry (BLI), rIgG1 with M428L/N434S
[16] = molecular target: T3, MPV fusion glycoprotein with the D280N mutation (MPV-F N280) (metapneumovirus); test: as above
T3 construct: also called MPV F D280N; MPV-F D280N

[17] = molecular target: T4, MPV fusion glycoprotein without the D280N mutation (MPV-F D280) (metapneumovirus); test: as above
T4 construct: also called MPV F Non-D280N; MPV-F wt

[18] = molecular target: fusion glycoprotein (F) of the RSV used in the GFP-based neutralization assay of Table 23 (respiratory syncytial virus); test: cell-based or functional assay
[19] = molecular target: fusion glycoprotein (F) of the MPV (non-D280N) used in the GFP-based neutralization assay of Table 23 (metapneumovirus); test: cell-based or functional assay
DS-Cav1 RSV F [20] = molecular target: T5, DS-Cav1 RSV F (respiratory syncytial virus); test: ELISA on DS-Cav1 RSV F
T5 construct: also called DC-VCav1

[21] = molecular target: T6, RSV F expressed on transfected Expi293F cells (respiratory syncytial virus (RSV)); test: flow cytometry, transfected Expi293F cells, fixed and permeabilised
[22] = molecular target: fusion glycoprotein (F) of MPV A GFP (Tables 41 and 43) (metapneumovirus A); test: cell-based or functional assay
biot-RSV-F wt [23] = molecular target: T7, biot-RSV-F wt (respiratory syncytial virus (RSV)); test: BLI, SA sensor loaded with biot-RSV-F wt, mAb 5 ug/ml, 4 min association, 6 min dissociation
biot-RSV-F wt [24] = molecular target: T7, biot-RSV-F wt; test: BLI (Octet), biotinylated F on SA sensors, mAb 5 µg/ml
[25] = molecular target: fusion glycoprotein (F) of RSV A GFP (Tables 41 and 42) (respiratory syncytial virus A); test: cell-based or functional assay
[26] = molecular target: fusion glycoprotein (F) of RSV B GFP (Tables 41 and 42) (respiratory syncytial virus B); test: cell-based or functional assay
[27] = molecular target: T6, RSV F expressed on transfected Expi293F …; test: flow cytometry, transfected Expi293F cells, fixed and permeabilised; remark: listed apart in the source
biot-RSV-F wt [28] = molecular target: T7, biot-RSV-F wt; test: BLI, SA sensor loaded with biot-RSV-F wt, mAb 5 ug/ml, 4 min association, 6 min dissociation; remark: listed apart in the source

B1: MPK65-v2-rIgG1-LS (antibody, V domains shown)
VH: QVPLVQSGAEVKKPGESLKISCKGSGYSFINYWIGWVRQMPGKGLEWMGVIYPFDSDTKYSPSFQGHVTISADKSSNTAYVQWSSLKASDTAMYYCARFTFGIAVVTDDVSGEGQAFEIWGQGTMVTVSS
VL: EIVMMQSPATLSVSPGERATLSCRASQSVAGNLAWYQQRPGQAPRLLIYGASTRATGVPARFSGSGSETEFTLTISSLQSEDFAVYYCHQYSNWPQAFGQGTRLDIK
notes: Recombinant human IgG1 with M428L/N434S (LS)
[1]
  IC50, virus neutralization: 0.17 ng/mL
[2]
  IC50, virus neutralization: 0.74 ng/mL
[3]
  IC50, virus neutralization: 0.95 ng/mL
[4]
  IC50, virus neutralization: 0.955 ng/mL
[5]
  IC50, virus neutralization: 0.59 ng/mL
[6]
  IC50, virus neutralization: 0.56 ng/mL
[7]
  IC50, virus neutralization: 0.47 ng/mL
[8]
  IC50, virus neutralization: 0.607 ng/mL
RSV-B F
  Kd: 0.404 nM
[9]
  IC50, virus neutralization: 0.741 ng/mL
[10]
  IC50, virus neutralization: 0.4 ng/mL
[11]
  IC50, virus neutralization: 0.5 ng/mL
[12]
  IC50, virus neutralization: 1.7 ng/mL

B2: MPK176-rIgG1-LS (antibody, V domains shown)
VH: QVQLVQSGAEVKKPGASVRVSCKASGYTLTAYGISWVRQAPGQGLEWMGWISPKHGNTHYAQRFQGRVTMTTDTSTSTAYMELRSLRPDDTAVYFCAREGVDIMAVPWYFDYWGQGTLVAVSS
VL: SYELTQPPSVSVAPGQTARISCGGNNIGSKSVHWYQQKPGQAPVVVVYDDSDRPSGIPERFSGSNSGNTATLTISGVEAGDEADYFCQVWDSATDHWVFGGGTKLTVL
notes: as for B1
[1]
  IC50, virus neutralization: 2.45 ng/mL
[2]
  IC50, virus neutralization: 2.3 ng/mL
[3]
  IC50, virus neutralization: 2.87 ng/mL
[4]
  IC50, virus neutralization: 4.15 ng/mL
[5]
  IC50, virus neutralization: 2.12 ng/mL
[6]
  IC50, virus neutralization: 2.08 ng/mL
[7]
  IC50, virus neutralization: 1.06 ng/mL
[8]
  IC50, virus neutralization: 2.19 ng/mL
RSV-B F
  Kd: 0.001 nM
RSV-A F
  Kd: 0.0591 nM

B3: MPK201-rIgG1-LS (antibody, V domains shown)
VH: EVQLVQSGAEVKKPGESLKISCQGSGYSFINYWIGWVRQKPGKGLEWMGIIYPFDSETKYSPSFQGHVTFSADKSINTAYVQWSSLRASDTAMYYCARFTFGLAVTTADVSGEGQAFEIWGQGTMVTVSS
VL: B1 VL with I48V, T56S, Q90H, N93D
notes: as for B1
[1]
  IC50, virus neutralization: 3.01 ng/mL
[2]
  IC50, virus neutralization: 1.26 ng/mL
[3]
  IC50, virus neutralization: 1.53 ng/mL
[4]
  IC50, virus neutralization: 2.83 ng/mL
[5]
  IC50, virus neutralization: 1.77 ng/mL
[6]
  IC50, virus neutralization: 2.33 ng/mL
[7]
  IC50, virus neutralization: 1.23 ng/mL
[8]
  IC50, virus neutralization: 1.49 ng/mL
RSV-B F
  Kd: 0.001 nM
RSV-A F
  Kd: 0.001 nM

B4: MPH12-v2 (VH C111/C112.2 variant of Tables 18 and 19) (antibody, V domains shown)
VH: QVQLVESGGGLVKPGGSLRLSCVASGFTFSGFYMKWIRQAPGKGLEWVSSISASGSYTNYADSVEGRFTVSRDNAKNSLFLLMSSLRAEDTAVYYCARGDSYAGASAAHGEFFHKWGQGTLVTVSS
VL: QSVLTQPPSVSGAPGQRVTISCTGSDSNIGADFDVHWYQQLPGTAPKLLIYGNINRPSGVPDRFSGSRSGTSAFLAITRLQAEDEADYYCQSYDRSLHYVFGAGTKVTVL
DS-Cav1 RSV F [13]
  EC50 (read off the curve): ~100 ng/mL
[14]
  MPV IC50 (nM), neutralization of MPV A1/6621: 0.552 nM

B5: MPH12-v16 (VH-FRGL-S63A/VL-D25S) (antibody, V domains shown)
VH: B4 VH with V23A, S63A, V70I, F80Y, L82Q, S84N, A103C, A108C
VL: B4 VL with D26S
notes: also called MPH12 VH-FRGL-S63A / MPH12 VL-D25S
[15]
  Kd: 0.41 nM
[16]
  Kd: 0.54 nM
[17]
  Kd: 0.038 nM
[18]
  RSV IC 50 (ng/mL), GFP-based in vitro neutralization: 50.3 ng/mL
[19]
  MPV IC50 (ng/mL), GFP-based in vitro neutralization: 26.8 ng/mL
DS-Cav1 RSV F [20]
  EC50: 15.6 ng/mL

B6: MPH12-v28 (VH-FRGL-S63A/VL-S26A) (antibody, V domains shown)
VH: B4 VH with V23A, S63A, V70I, F80Y, L82Q, S84N, A103C, A108C
VL: B4 VL with S27A
notes: also called MPH12 VH-FRGL-S63A / MPH12 VL-S26A
[15]
  Kd: 0.38 nM
[16]
  Kd: 0.74 nM
[17]
  Kd: 0.045 nM
[18]
  RSV IC 50 (ng/mL), GFP-based in vitro neutralization: 59.4 ng/mL
[19]
  MPV IC50 (ng/mL), GFP-based in vitro neutralization: 26.3 ng/mL
DS-Cav1 RSV F [20]
  EC50: 32.2 ng/mL

B7: MPK190-v1.1-rIgG1m17,1-LS (antibody, V domains shown)
VH: QVQLVESGGGLVKPGGSLTLSCAASGFSISGYGMNWVRQAPGRGLEWVASISASSTYIYYADSMKGRFTISRDNGKTSLYLQMKSLRAEDTAVYYCARAPIEPPYFDLWGRGTLVTVSS
VL: QSVLTQPPSVSGAPGQRVTISCTGSNSNIGAGYDVHWYQHLPGKAPKVLIYGNNNRPSVVPDRFSGSNSGASASLAISGLQAEDEADYFCQSYDRRLSGPIFGGGTKLTVL
notes: also called MPK190-v1.1-rIgG1-LS
[21]
  Binding (FACS) relative to parental mAb MPK190-v1.1: 1
[22]
  IC50 (ng/ml), MPV A GFP neutralization: 4.03 ng/mL
biot-RSV-F wt [23]
  Kd: < 0.001 nM
biot-RSV-F wt [24]
  Kd: < 0.001 nM
[25]
  IC50 (ng/ml), RSV A GFP neutralization: 3.54 ng/mL
[26]
  IC50 (ng/ml), RSV B GFP neutralization: 3.39 ng/mL

B8: MPK190-v1.3-rIgG1m17,1-LS (antibody, V domains shown)
VH: B7 VH
VL: QSVLTQPPSVSGAPGQRVTISCTGSSSNIGAGYDVHWYQHLPGKAPKVLIYGNTNRPSVVPDRFSGSNSGASASLAISGLQAEDEADYFCQSYDRRLSGPIFGGGTKLTVLG
notes: also called MPK190-v1.3-rIgG1-LS
[21]
  Binding (FACS) relative to parental mAb MPK190-v1.1: 0.9
[22]
  IC50 (ng/ml), MPV A GFP neutralization: 5.99 ng/mL
biot-RSV-F wt [23]
  Kd: < 0.001 nM
biot-RSV-F wt [24]
  Kd: < 0.001 nM
[25]
  IC50 (ng/ml), RSV A GFP neutralization: 3.18 ng/mL
[26]
  IC50 (ng/ml), RSV B GFP neutralization: 2.38 ng/mL

B9: MPK104-v1.3-rIgG1m17,1-LS (antibody, V domains shown)
VH: QVQLVESGGGLVKPGGSLRLSCAASGFTIDGYGMNWVRQAPGKGLEWVSSISASSNYIYYADSMKGRFTISRDNGKNSLYLQMHSLRVEDTGVYYCARAPLEPPYFDLWGRGTLVTVSS
VL: QSVLTQPPSVSGAPGQRVTISCSGGSSNIGAGYDVHWYQQVPGKGPKVLIYGNTNRPSGVPDRFSGSNFGASASLAITGLQAEDEADYFCQSYDRRLGGPVFGGGTKLTVL
notes: also called MPK104-v1.3-rIgG1-LS
[27]
  Binding (FACS) relative to parental mAb MPK104-v1.1: 1.1
[22]
  IC50 (ng/ml), MPV A GFP neutralization: 5.57 ng/mL
biot-RSV-F wt [24]
  Kd: 0.209 nM
[25]
  IC50 (ng/ml), RSV A GFP neutralization: 2.71 ng/mL
[26]
  IC50 (ng/ml), RSV B GFP neutralization: 6.49 ng/mL
biot-RSV-F wt [28]
  Kd: 0.0924 nM

B10: MPK104-v1.1-rIgG1m17,1-LS (antibody, V domains shown)
VH: B9 VH
VL: B9 VL with T54N, E83D
notes: called the parental mAb (v1.1)
[27]
  Binding (FACS) relative to parental mAb MPK104-v1.1: 1
biot-RSV-F wt [28]
  Kd: 0.0649 nM
